From US20060110799A1, “Mitogen-activated protein kinase kinase MEK6 and methods of use thereof” (Signal Pharmaceuticals, Inc., priority 1995, published 2006) come the findings set out here.

Where two headings read alike, the source gives them in different places.

For data set [1], the system named is MEK6. As to the kind of experiment: immune complex kinase assay with GST-p38 substrate, HeLa cells transfected with epitope-tagged MEK6. Type of data set: cell-based, human. The following applies: for stimulation of MEK6 (summary of Example 4): summary statement for transfected HeLa and COS cells. As for the experimental part: Next, we examined whether MEK6 can activate p38 in vivo. An expression vector encoding epitope-tagged MEK6 (3xHA-MEK6-SRα3) was constructed by replacing serine in position 2 of MEK6 with alanine, adding sequence encoding three copies of a 10 amino acid hemagglutinin (HA) epitope to the N-terminus of MEK6 and ligating the resulting cDNA into SRα3. HeLa cells, cultured in Dulbecco's modified Eagle medium supplemented with 10% fetal calf serum, 500 mg/l L-glutamine, and antibiotics, were transiently transfected with 3xHA-MEK6 using calcium phosphate-mediated DNA precipitation (Graham and van der Eb, Virology 52:456-467 (1973)). Twenty-four hours later cells were stimulated with anisomycin (50 ng/mL) or UV (254 nm; 120 J/m^2) for 0-120 minutes. Cell lysates were prepared by solubilization in lysis buffer as described (Derijard et al., Cell 76:1025-1037 (1994)), and protein concentration of lysates was determined by Bradford assay (Bradford, Ann. Biochem. 72:248-254(1976)).
In an initial experiment we investigated the time course of MEK6 activation by anisomycin and UV treatment of transfected cells. Cell lysates were used in an immune complex kinase assay with GST-p38 substrate, performed as described above except that 30 μg cell lysate was immunoprecipitated for 2 hours with the anti-HA antibody 12CA5 (Boehringer-Mannheim Corp., Indianapolis, Ind.) and then incubated with 1 μg of recombinant substrate. Reactions were separated by SDS-PAGE and quantitated with a phosphorimager and ImageQuant software. The relative level of MEK6 activity in untreated cells was arbitrarily assigned 1.
To investigate the pattern of regulation of MEK6, cells were transiently transfected with 3xHA-MEK6 (as described in Example 3) and treated with various stimulators of the MAPK pathway.
MEKK has been described as a MAPKKK leading to the phosphorylation and activation of JNKK (Lin et al., Science 268:286-290 (1995); Minden et al., Science 266:1719-1722 (1994); Yan et al., Nature 372:798-800 (1994)). In an initial experiment, HeLa (FIG. 7A) or COS (FIG. 7B) cells were transiently transfected with epitope-tagged MEK6 (lanes 1 to 12) or the empty expression vector SRα3 (lanes 13 to 16) and treated for 45 min with IL-1β (10 ng/ml), TNF-α (10 ng/ml), EGF (50 ng/ml), NGF (50 ng/ml), PMA (50 ng/ml), Anisomycin (50 ng/ml), Cycloheximide (CX, 50 ng/ml), Arsenite (200 μM), NaCl (200 μM), UV (254 nm; 120 J/m^2) or cotransfected with 1000 ng CMV5-MEKK as indicated. Cell lysates were used in an immune complex kinase assay with GST-p38 substrate as described in Example 3. MEK6 activity was quantitated with a phosphorimager and ImageQuant software.

The subject of data set [2] is MEK6 / p38 / ATF2. As to the kind of experiment: coupled immune complex kinase assay, MEK6 from anisomycin-treated HeLa cells, recombinant p38 and ATF2. Type of data set: cell-based, human. As to conditions: anisomycin 45 minutes, 50 ng/mL, FIG. 6. As for the experimental part: To determine whether the increase in p38 phosphorylation by activated MEK6 augments p38 kinase activity a coupled immune complex kinase assay was performed. Epitope-tagged MEK6 was isolated from anisomycin-treated HeLa cells (45 minutes; 50 ng/mL) and subjected to two subsequent kinase reactions as described above using recombinant p38, ATF2 and GST alone. […] Similar results have been found with MEK6 activated by UV treatment of cells (data not shown). […] This phosphorylation event was slightly augmented by anisomycin in the presence of MEK6 (FIG. 6, compare lanes 3 and 4 with lanes 11 and 12). This protein was not observed in in vitro kinase assays, and therefore is most likely a contamination of the immunoprecipitation.

Data set [3] deals with His-ERK1[K52R]. As to the kind of experiment: in vitro kinase assay with bacterially expressed MAPK substrate. Type of data set: biochemical. As to conditions: 0.5 μg recombinant kinase, 1 μg substrate, 50 nM [γ-32P]ATP. As for the experimental part: (§1) A MEK6 kinase assay may be performed substantially as described in Derijard et al., Cell 76:1025-1037 (1994) and Lin et al., Science 268:286-290 (1995), with minor modifications. Briefly, a polypeptide variant of MEK6 may be incubated with p38 and [γ-^32P]ATP in a suitable buffer (such as 20 mM HEPES (pH 7.6), 5 mM MnCl2, 10 mM MgCl2, 1 mM dithiothreitol) for 30 minutes at 30° C. In general, approximately 0.5 μg of the variant and 1 μg recombinant p38, with 50 nM [γ-^32P]ATP, is sufficient. Proteins may then be separated by SDS-PAGE on 10% gels and subjected to autoradiography. Incorporation of [^32P]phosphate into p38 may be quantitated using techniques well known to those of ordinary skill in the art, such as with a phosphorimager. To evaluate the substrate specificity of polypeptide variants, a kinase assay may generally be performed as described above except that other MAPK substrates (i.e., JNK2 and/or ERK) are substituted for the p38.
(§2) cDNAs encoding MEK6 and MKK3 were subcloned into a bacterial GST-fusion protein expression vector. GST-MEK6 was constructed by ligating a 1.3 kb DNA fragment encoding amino acid 1 through the stop codon of MEK6 with a serine to alanine substitution of amino acid 2 into pGEX-KG (Guan and Dixon, Ann. Biochem. 192:262-267 (1991)). Similarly, GST-MKK3, GST-p38 and GST-JNK2 were constructed by ligating the respective cDNA fragments encoding amino acid 1 through the stop codon into pGEX-KG. Human p38 cDNA (Genbank accession number U10871) was cloned by PCR amplification of a Jurkat cDNA library with primers against the 5′ end (5′-[…]-3′) (SEQ ID NO:5) and 3′ end (5′-[…]-3′) (SEQ ID NO:6) of the published human p38 sequence. Each strand of the PCR fragment was sequenced several times with an ABI 373 Automated Sequencer. His-ERK1[K52R] was prepared as described previously (Robbins et al., J. Biol. Chem. 268:5097-5106 (1993)).
(§3) We investigated the substrate specificity of MEK6 in an in vitro kinase assay with bacterially expressed MAPK substrates (GST-JNK2, GST-p38 and His-ERK1[K52R]). The assays were performed as previously described (Derijard et al., Cell 76:1025-1037 (1994); Lin et al., Science 268:286-290 (1995)) with minor modifications. 0.5 μg recombinant kinase and 1 μg recombinant substrate were used, and the concentration of [γ-^32P]ATP was 50 nM. Phosphorylated proteins were separated by SDS-PAGE on 10% gels and then subjected to autoradiography. Incorporation of [^32P]phosphate was quantitated with a phosphorimager and ImageQuant software (Molecular Dynamics, Inc., Sunnyvale, Calif.).

Data set [4] concerns the target T1, GST-p38 (Homo sapiens, UniProt Q16539, S2A).
T1 construct: ligating the respective cDNA fragments encoding amino acid 1 through the stop codon into pGEX-KG; made in house; host or cells: bacteria (pGEX-KG)
The data set is described as above. As to conditions: 0.5 μg recombinant kinase, 1 μg substrate, 50 nM [γ-32P]ATP. Type of data set: biochemical. As for the experimental part: as §1, §2, §3

Data set [5] deals with T2, GST-p38 (Homo sapiens, UniProt P52564, S2A).
T2 construct: ligating the respective cDNA fragments encoding amino acid 1 through the stop codon into pGEX-KG; made in house; host or cells: bacteria (pGEX-KG)
T2 sequence (P52564 1-334 S2A): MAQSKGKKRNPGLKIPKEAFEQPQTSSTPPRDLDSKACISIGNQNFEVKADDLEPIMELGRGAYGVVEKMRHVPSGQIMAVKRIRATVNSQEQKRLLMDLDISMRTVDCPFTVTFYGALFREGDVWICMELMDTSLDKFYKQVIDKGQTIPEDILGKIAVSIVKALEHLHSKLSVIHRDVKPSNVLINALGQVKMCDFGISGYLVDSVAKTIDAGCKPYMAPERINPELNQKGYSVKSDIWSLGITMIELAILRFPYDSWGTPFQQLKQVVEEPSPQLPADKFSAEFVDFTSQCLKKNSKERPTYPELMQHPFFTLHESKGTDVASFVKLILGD
The description is as above. Type of data set: biochemical. The following applies: in vitro kinase assay, compared to MKK3. As for the experimental part:
as §1, §2, §3

Data set [6] concerns the target T3, GST-JNK2 (Homo sapiens, UniProt P45984).
T3 construct: ligating the respective cDNA fragments encoding amino acid 1 through the stop codon into pGEX-KG; made in house; host or cells: bacteria (pGEX-KG)
The data set is described as above. Type of data set: biochemical. As to conditions: 0.5 μg recombinant kinase, 1 μg substrate, 50 nM [γ-32P]ATP. As for the experimental part: as §1, §2, §3

The test system of data set [7] is GST-p38 / GST-ATF2. As to the kind of experiment: coupled in vitro kinase assay (p38, GST-ATF2). Type of data set: biochemical, human. As for the experimental part:
To determine whether p38 phosphorylation results in activation, a coupled in vitro kinase assay may be performed using a substrate for p38, such as ATF2, with or without an epitope tag. ATF2 for use in such an assay may be prepared as described in Gupta et al., Science 257:389-393 (1995). Briefly, following phosphorylation of p38 as described above, isolation of the protein by binding to GSH-sepharose and washing with 20 mM HEPES (pH 7.6), 20 mM MgCl2, the p38 (0.1-10 μg) may be incubated with ATF2 (0.1-10 μg) and [γ-^32P]ATP (10-500 nM) in a buffer containing 20 mM HEPES (pH 7.6), 20 mM MgCl2. It should be noted that alternative buffer may be used and that buffer composition can vary without significant effects on kinase activity. Reactions may be separated by SDS-PAGE, visualized by autoradiography and quantitated using any of a variety of known techniques. Activated p38 will be capable of phosphorylating ATF2 at a level of at least 5% above background using this assay.
To determine whether phosphorylation of p38 is an activating event we analyzed the phosphorylation of recombinant ATF2 (a substrate for p38) in a coupled in vitro kinase assay. […] Reactions were separated by SDS-PAGE and visualized by autoradiography.

Data set [8] has as its system GST-JNK2 / GST-cJun(1-79). As to the kind of experiment: coupled in vitro kinase assay (JNK2, GST-cJun(1-79)). The following applies: FIG. 3B lanes 1 to 3. Type of data set: biochemical.
Where [9] appears, read: HeLa cells, 45 min, anisomycin 50 ng/ml, NaCl 200 μM, IL-1β 10 ng/ml, EGF 50 ng/ml, NGF 50 ng/ml, CMV5-MEKK 1000 ng cotransfected, FIG. 7A.
Setting [10] is: HeLa cells, anisomycin 50 ng/mL, FIG. 4.

T1 sequence (Q16539 whole entry S2A, the tested form may be a part): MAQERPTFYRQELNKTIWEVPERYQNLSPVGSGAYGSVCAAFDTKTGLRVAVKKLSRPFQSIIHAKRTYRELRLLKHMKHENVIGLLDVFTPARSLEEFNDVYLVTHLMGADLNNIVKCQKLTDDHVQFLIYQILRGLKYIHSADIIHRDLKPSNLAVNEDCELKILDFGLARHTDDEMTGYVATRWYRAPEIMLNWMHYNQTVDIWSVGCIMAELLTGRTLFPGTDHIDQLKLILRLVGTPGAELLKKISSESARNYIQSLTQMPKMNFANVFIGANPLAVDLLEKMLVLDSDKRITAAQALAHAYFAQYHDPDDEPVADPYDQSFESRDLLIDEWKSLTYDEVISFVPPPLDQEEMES

Consider `[Cl-].[Na+]` [NaCl], for which the “induction of MEK6 kinase activity” value in data set [1] is “strongest inducers”.
Take `COc1ccc(C[C@H]2NC[C@H](O)[C@H]2OC(C)=O)cc1` [anisomycin]: the “phosphorylation of ATF2 after anisomycin treatment” value in data set [2] is “increased phosphorylation of ATF2 only when MEK6 and p38 were present”. Also, in data set [1] (setting [9]), the “induction of MEK6 kinase activity” value is “strongest inducers”. In data set [1] (setting [10]), the “time at which MEK6 activation was first observed after treatment” value was found to be 10 min and the “time of peak MEK6 activation after treatment” value was found to be 40 min. In data set [1], the “stimulation of MEK6 (summary of Example 4)” value (from here on “stimulation of MEK6”) is “strongly activated”.
Take `C[C@@H]1C[C@@H]([C@H](O)CC2CC(=O)NC(=O)C2)C(=O)[C@@H](C)C1` [cycloheximide]: the “stimulation of MEK6” value in data set [1] is “did not significantly activate MEK6”.
For the molecule EGF: strong inducer of the ERK pathway, the “induction of MEK6 kinase activity” value in data set [1] (setting [9]) was “did not activate MEK6”. Also, the “stimulation of MEK6” value in data set [1] is reported as “did not stimulate MEK6”.
As to IL-1β: cytokine stimulator, the “induction of MEK6 kinase activity” value in data set [1] (setting [9]) is given as “weak induction”.
Regarding NGF: strong inducer of the ERK pathway, in data set [1] (setting [9]), the “induction of MEK6 kinase activity” value is “did not activate MEK6”. Moreover, in data set [1], the “stimulation of MEK6” value was “did not stimulate MEK6”.

B1: MEK6: human mitogen-activated protein kinase kinase, SEQ ID NO:2, 334 amino acids; used as GST fusion or HA epitope-tagged (protein)
chain: SQSKGKKRNPGLKIPKEAFEQPQTSSTPPRDLDSKACISIGNQNFEVKADDLEPIMELGRGAYGVVEKMRHVPSGQIMAVKRIRATVNSQEQKRLLMDLDISMRTVDCPFTVTFYGALFREGDVWICMELMDTSLDKFYKQVIDKGQTIPEDILGKIAVSIVKALEHLHSKLSVIHRDVKPSNVLINALGQVKMCDFGISGYLVDSVAKTIDAGCKPYMAPERINPELNQKGYSVKSDIWSLGITMIELAILRFPYDSWGTPFQQLKQVVEEPSPQLPADKFSAEFVDFTSQCLKKNSKERPTYPELMQHPFFTLHESKGTDVASFVKLILGD
modifications: GST fusion or HA tag; homo sapien
For the molecule B1, in data set [3], the “phosphorylation of ERK1[K52R] by MEK6” value is “none of the other substrates”. In addition, the “phosphorylation of p38 by MEK6” value in data set [4] was “efficiently phosphorylated p38”. The “autophosphorylation of MEK6” value in data set [5] is recorded as “very low compared to MKK3”. The “phosphorylation of JNK2 by MEK6” value in data set [6] was “none of the other substrates”. In addition, the “phosphorylation of ATF2 by p38 activated by MEK6” value in data set [7] (FIG. 3B lane 5) is reported as “strongly phosphorylated”. Moreover, the “direct phosphorylation of ATF2 by MEK6” value in data set [7] (without p38) is “not directly phosphorylated”. Moreover, the “phosphorylation of Jun, directly or in combination with JNK2” value in data set [8] is recorded as “did not cause increased phosphorylation of Jun”.
